# Laboratory results as given in patent US20250376507A1, “NOVEL TUMOR ANTIGEN-TARGETING ANTICANCER AGENT” (INDUSTRY FOUNDATION OF CHONNAM NATIONAL UNIVERSITY, priority 2022, published 2025).
# Where “and” joins values, the source holds several entries; their conditions need not be identical. Identical values can stand only once.
# B1: L-ASNase: L-asparaginase, enzyme that hydrolyzes L-asparagine; purchased from Prospec, used as free control (protein)
# chain: LPNITILATGGTIAGGGDSATKSNYTAGKVGVENLVNAVPQLKDIANVKGEQVVNIGSQDMNDDVWLTLAKKINTDCDKTDGFVITHGTDTMEETAYFLDLTVKCDKPVVMVGAMRPSTSMSADGPFNLYNAVVTAADKASANRGVLVVMNDTVLDGRDVTKTNTTDVATFKSVNYGPLGYIHNGKIDYQRTPARKHTSDTPFDVSKLNELPKVGIVYNYANASDLPAKALVDAGYDGIVSAGVGNGNLYKTVFDTLATAAKNGTAVVRSSRVPTGATTQDVEVDDAKYGFVASGTLNPQKARVLLQLALTQTKDPQQIQQIFNQY
# modifications: L-asparaginase
# notes: L-asparaginase, enzyme that hydrolyzes L-asparagine; purchased from Prospec, used as free control
# Experiments:
# CT-26 cells [1] = assay: Cell viability (CCK-8) of CT-26 cells; format: cell-based, mouse
# Method: CT-26 and MC-38 cells (10^4 cells per well) were seeded into three wells of a 96-well plate and incubated at 37° C. The next day, the culture medium was replaced with 100 μL of fresh medium containing the above concentrations of anticancer agents. After incubation at 37° C. for 4 h, the culture medium was removed and the cells were washed three times with PBS. […] Finally, CCK-8 reagent (10 μL/well) was added for 3 h at 37° C., and the amount of color in each sample was measured at OD450.
# [2] = L-ASNase activity analysis (asparaginase activity kit); format: biochemical; details: 25° C.
# Method: The L-ASNase enzyme activity of the recombinant proteins was measured with an asparaginase activity analysis kit using an OxiRed probe (Abcam, USA). 1 International unit (IU) was defined as the amount of enzyme generating 1.0 μmol of Asp per minute at 25° C.
# [3] = Thermal stability analysis at 55° C.; format: physicochemical; details: after 180 min
# Method: Briefly, 200 μL of PASylated recombinant protein or L-ASNase (1 mg/mL) was incubated in a thermal cycler (Finepcr, Korea) at 55° C. for 30-180 min. The residual enzymatic activity of the proteins was measured using an asparaginase activity analysis kit as described above. The residual activity (%) at each incubation time was calculated relative to the sample activity at time 0.
# CT-26 cells [4] = assay: Flow cytometry for ecto-CRT exposure in L-ASNase-treated CT-26 cells; format: cell-based, mouse; details: 200 IU/mL, 24 h
# Method: FIG. 6a is a graph showing the analysis of the cytotoxicity enhanced by CRT3LP and CRT4LP in tumor cells treated with ICD-induced anticancer agents and the viability of tumor cells treated with L-ASNases. CT-26 cells (4×10^4) cultured overnight were treated with L-ASNases (200 IU/mL) in 96-well plates and viability was measured at the indicated times. The viability at each time was calculated relative to time 0. Cells were stained with anti-CRT antibodies.
# FIG. 6b is a graph representing the results of flow cytometry histogram analysis for ecto-CRT. Filled black lines stained with isotype antibodies; red lines stained with anti-CRT antibodies.
# [5] = In vivo pharmacokinetic analysis; parameters: species or system BALB/c mice; details: 10 IU intravenous, mouse serum
# Method: Six-week-old female BALB/c mice (Orient Company, Korea) were randomly assigned to different treatment groups (n=3) and intravenously injected with 10 IU of PASylated recombinant protein. Then, blood samples were taken from the eyes at the specified time (0-52 h) and left at 4° C. for 40 min. After centrifugation at 12,000 rpm for 20 min, the serum fraction was obtained and stored at −80° C. before further analysis. PASylated recombinant protein in serum was assessed using the ELISA method described above. The amount of serum recombinant protein was converted to enzyme activity.
molecule,measurement,setting,value
B1,reduction of cell viability in cells pretreated with anticancer agents,"CT-26 cells [1]; 1 IU/mL, 24 h after pretreatment",barely reduced
same,cell viability,"CT-26 cells [1]; 200 IU/mL, 24 h, no anticancer pretreatment",progressive decrease in viability
same,enzymatic activity (specific activity),[2],~7.2 IU/nmol
same,"residual enzymatic activity, of the initial activity",[3],16.4%
same,CRT exposure (ecto-CRT),CT-26 cells [4],no significant CRT exposure
same,half-life,[5],1.8 h and 1.79 ± 0.22 h
